# Tests used:
# [1] = target: GST-Tnp3 (Transportin 3), full length (human) (UniProt Q9Y5L0); assay: pull-down; GST-Tnp3, GST-Tnp3 DC825 or GST-Xpo-t held on glutathione-Sepharose 4B beads, with purified HIV-1 vector disrupted by gentle sonication (50 µl), with or without RanQ69L-GTP; binding buffer 50 mM Hepes pH 7.3, 200 mM NaCl, 2 mM Mg(Ac)2, 10 µM GTP; 4°C; silver stain and Western blot with anti-capsid antibody, ImageJ quantification
# [2] = target: GST-Tnp3 DC825 deletion mutant (human) (UniProt Q9Y5L0); assay: as above
# Chain of GST-Tnp3 DC825 deletion mutant (human) (Q9Y5L0 1-825, stated change not applied): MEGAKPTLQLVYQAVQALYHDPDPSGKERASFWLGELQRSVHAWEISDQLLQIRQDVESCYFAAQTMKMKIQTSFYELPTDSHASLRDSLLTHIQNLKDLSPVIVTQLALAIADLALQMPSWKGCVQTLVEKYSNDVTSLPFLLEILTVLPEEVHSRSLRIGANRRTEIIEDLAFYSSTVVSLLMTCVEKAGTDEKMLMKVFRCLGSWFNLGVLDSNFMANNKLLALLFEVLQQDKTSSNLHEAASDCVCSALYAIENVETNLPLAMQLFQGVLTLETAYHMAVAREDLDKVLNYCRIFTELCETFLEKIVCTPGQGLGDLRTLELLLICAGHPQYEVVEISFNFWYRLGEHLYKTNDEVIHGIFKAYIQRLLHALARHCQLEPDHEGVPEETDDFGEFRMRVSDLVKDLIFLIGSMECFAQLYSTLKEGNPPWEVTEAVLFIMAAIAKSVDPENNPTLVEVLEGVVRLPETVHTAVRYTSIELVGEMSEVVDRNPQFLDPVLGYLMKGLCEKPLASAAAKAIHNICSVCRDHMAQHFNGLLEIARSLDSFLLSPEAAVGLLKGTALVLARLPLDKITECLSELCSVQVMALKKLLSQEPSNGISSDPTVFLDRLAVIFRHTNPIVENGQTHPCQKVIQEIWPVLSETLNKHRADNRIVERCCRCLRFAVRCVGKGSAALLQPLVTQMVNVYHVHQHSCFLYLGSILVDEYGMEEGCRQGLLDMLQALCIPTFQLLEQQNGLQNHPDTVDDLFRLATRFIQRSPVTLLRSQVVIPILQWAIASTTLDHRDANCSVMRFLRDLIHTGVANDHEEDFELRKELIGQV
# Chain of GST-Tnp3 (Transportin 3), full length (human) (Q9Y5L0 whole entry): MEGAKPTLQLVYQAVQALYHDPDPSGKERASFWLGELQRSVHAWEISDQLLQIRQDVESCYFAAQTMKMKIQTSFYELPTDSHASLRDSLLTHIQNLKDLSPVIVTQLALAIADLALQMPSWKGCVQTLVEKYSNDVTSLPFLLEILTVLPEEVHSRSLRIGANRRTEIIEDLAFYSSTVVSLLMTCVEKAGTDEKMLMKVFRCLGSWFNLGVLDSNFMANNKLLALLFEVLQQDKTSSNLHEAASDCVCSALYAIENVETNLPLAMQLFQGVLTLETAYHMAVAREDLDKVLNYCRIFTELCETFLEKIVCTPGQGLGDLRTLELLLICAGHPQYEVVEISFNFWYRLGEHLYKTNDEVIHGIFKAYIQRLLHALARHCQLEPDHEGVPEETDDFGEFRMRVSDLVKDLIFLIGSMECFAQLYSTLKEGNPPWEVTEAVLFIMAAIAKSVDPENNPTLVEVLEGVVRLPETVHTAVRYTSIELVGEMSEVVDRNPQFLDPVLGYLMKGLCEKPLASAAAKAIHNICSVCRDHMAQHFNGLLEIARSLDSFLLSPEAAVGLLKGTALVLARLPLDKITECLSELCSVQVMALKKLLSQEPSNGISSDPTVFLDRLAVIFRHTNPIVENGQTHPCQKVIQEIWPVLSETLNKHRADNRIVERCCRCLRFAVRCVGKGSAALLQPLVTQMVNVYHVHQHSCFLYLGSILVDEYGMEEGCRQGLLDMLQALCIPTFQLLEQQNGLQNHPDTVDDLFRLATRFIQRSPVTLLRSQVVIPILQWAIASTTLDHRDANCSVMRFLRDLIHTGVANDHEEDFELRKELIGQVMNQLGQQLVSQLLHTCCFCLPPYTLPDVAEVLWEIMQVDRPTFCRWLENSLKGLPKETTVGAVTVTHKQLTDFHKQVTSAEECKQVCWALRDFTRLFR
substance,measurement,setting,value
"HIV-1 capsid protein (CA, p24) of purified HIV-1 vector particles (natural protein)",fold increase of binding with RanGTP against without,[1],2.5 fold
same,fold reduction of binding against full-length Tnp3,[2],3 fold

# From PMC3161976
